Results taken from patent US12337037B2, “Taxol conjugate compounds, pharmaceutical compositions comprising the same, and methods for their use” (N1 Life, Inc, priority 2021, dated 2025).

Assays:
[1] = system: Hep G2 cells; assay: CCK-8 cytotoxicity / anti-proliferation assay, Hep G2; format: cell-based; settings: 2000 nM
Method: Cytotoxicity Assay—CCK8 Cancer Cells
The CCK-8 assay was applied to study the cytotoxicity of the peptide drug conjugates and their inhibition of proliferation of cancer cells. First, 2˜10×10^3 cells (depending on the rate of growth of different cell lines) with 100 μL, DMEM media were seeded in normal culture medium into each well of a 96-well plate. The cells were then cultured overnight at 37° C. with 4˜5% CO2. Different doses (4000, 2000, 1000, 500 nM for Hep3B, Hep G2 and MCF7/MBA-MD-231; 1000, 333.3, 100.0, 33.33, 3.333, 1.000, 0.333 nM for MCF7/ADR, 22Rv1, CNE1, HCT116, DLD-1) of Taxol and peptide drugs were added. After 48˜72 hour incubation, CCK-8 solution was added to each well. The cells were then incubated at 37° C. for 4 hours. The optical density was measured at 450/650 nm using a multiscan spectrometer (PerkinElmer's EnSpire Multilabel Plate Reader). The optical density is linearly proportional to the number of living cells in the sample: […]

[2] = Stability in plasma, mouse; format: in vitro ADME; settings: for half-life: 37° C., read-out: Mean T1/2 (converted)
Method: Working solutions of test compounds were prepared in PBS (pH 7.4). Propantheline was used as positive control for human, monkey, dog and mouse plasma in the assay. Mevinolin was used as positive control for rat plasma in this assay. 1 mM propantheline working solution was prepared in acetonitrile. 1 mM mevinolin working solution was prepared in DMSO. Incubation buffer of 475 μL plasma for each cell was added into the incubation plate and pre-warmed at 37° C. for 15 minutes. After the pre-incubation, 25 μL of working solution (test compounds or control compounds) was spiked to plasma. For Compound 5 and Compound 3, the final concentration of organic concentration was 0%. For Taxol, the final concentration of organic solvents was 0.25%. The assay was performed in duplicate. The reaction samples were incubated at 37° C. Aliquots of 50 μL were taken from the reaction samples at 0, 0.25, 0.5, 1, 2, 4, 6, 8 and 24 hours. The reactions were stopped by the addition of 450 μL of ice-cold quench solution (methanol with 2% FA containing internal standards). All samples were vortexed for 10 minutes, following by centrifugation at 3,220 g for 30 minutes to precipitate proteins. 100 μL of the supernatant from each well was transferred to a new plate. The supernatant was diluted with ultrapure water. Samples were analyzed by LC-MS/MS. All calculations were carried out using Microsoft Excel. Peak area ratios were determined from extracted ion chromatograms. Percent compounds remaining at each time point were calculated by the following equation: Remaining Percentaget min(%)=Peak Area Ratiot min/Peak Area Ratio0 min×100
Peak Area Ratiot min is peak area ratio of control and test compounds at t min; and
Peak Area Ratio0 min is peak area ratio of control and test compounds at zero time point.
The slope value, k, was determined by linear regression of the natural logarithm of the remaining percentage of the parent drug vs. incubation time curve.
The in vitro half-life (in vitro t1/2) was determined from the slope value: in vitro t1/2=(0.693/k)

[3] = system: human gastric cancer (NUGC-4) cells; assay: Efficacy against gastric cancer; format: in vivo, mice; settings: NUGC-4 model; 9.6 mg/kg QD5 (days 0, 5, 10)
Method: The fluorescence area of the tumor was measured over the course of the study (FIG. 13). After approximately Day 15 in the mice administered PBS, the formation of bloody ascites blocked the fluorescence reading. […] FIG. 14 is a graph comparing the fluorescence area on Day 21 of the study of the mice administered vehicle and the mice administered Compound 3. FIG. 15 is a graph comparing the tumor weight of the mice administered vehicle and the mice administered Compound 3 on Day 21.

[4] = In-life pharmacokinetics, single IP dose; settings: CD-1 mice
Method: General Procedure: A single-dose study was conducted in CD-1 mice. Groups (12 animals in each group) were administered an intraperitoneal (IP) dose of either Taxol (10 mg/kg), Compound 3 (38.4 mg/kg), or Compound 5 (38.4 mg/kg). Serial or terminal plasma samples (n=3 per timepoint) were collected from study animals at pre-determined times post-dose. Each mouse was serial bled 2 times (orbital bleeds) and one terminal bleed. The samples were collected in pre-chilled tubes for all steps. Upon completion of the in-life phase, the samples were analyzed using LC-MS/MS.
Assay Procedures: For analysis of analytes in mouse plasma, a 50.0 μL aliquot of each study sample was extracted with protein precipitation using 200 μl of 5% formic acid in methanol. Internal standards were added by adding 25.0 μL methanol containing 250 ng/mL tolbutamide and 1000 ng/mL Taxol-d5.
For Compound 5 and Compound 3 analysis, following centrifugation at 4000 rpm for 10 minutes, 150 μL of the supernatant was transferred to a clean 96 well collection plate for LC-MS/MS analysis.
For Taxol analysis, following centrifugation at 4000 rpm for 10 minutes, 75.0 μL of the supernatant was transferred into a clean 96 well collection plate containing 75.0 μL of deionized water. The plate was then capped and vortexed at 1650 rpm for 3 minutes prior to LC-MS/MS analysis.
Preparation of Standards and Quality Controls: Calibration standards of Compound 3 in mouse plasma were prepared on wet ice in blank mouse plasma at concentrations of 5.00, 10.0, 50.0, 100, 200, 250, 450, and 500 ng/mL. The low quality control ([LQC], 15.0 ng/mL), medium quality control ([MQC], 120 ng/mL) and high quality control ([HQC], 400 ng/mL) were prepared in blank mouse plasma.
Calibration standards of Taxol in mouse plasma were prepared on wet ice in blank mouse plasma at concentrations of 2.50, 5.00, 25.0, 125, 625, 1250, 2250, and 2500 ng/mL. The LQC, (7.50 ng/mL), MQC (120 ng/mL), and HQC (2000 ng/mL) were prepared in blank mouse plasma.
Sample Analyses: Mouse plasma samples were received from the in-life and were stored in a freezer set to −80° C.
Study samples were analyzed in 2 batches. At a minimum, each batch included the following: one set of calibration standards, a matrix blank (blank mouse plasma), a control-zero sample (blank mouse plasma with internal standard), and duplicate QC samples at 3 concentration levels (low, medium, and high) in addition to the study samples. Within each batch, the study samples were bracketed by calibration standards or QC samples.
Data Acquisition and Processing: The LC-MS/MS data acquisition was performed on an Agilent 1290 Infinity II HPLC system coupled with an AB SCIEX API 6500+ mass spectrometer. Chromatograms were integrated using Analyst 1.6.3 software. A weighted (1/x2, x=concentration) linear regression was used to generate the calibration curves and the regression was performed using Analyst 1.6.3 software. The concentration of the analyte in the samples was calculated using the peak area ratios of analyte to internal standard based on the calibration curve.

[5] = analyte: Taxol, IP single dose, Cmpd 3 / Cmpd 5 38.4 mg/kg, Taxol 10 mg/kg
[6] = analyte: the administered conjugate, 38.4 mg/kg IP single dose

SMILES	anti-proliferation effect compared to Taxol and Compound 5 (FIG. 2B) [1]	Percent Increase of T1/2, Compound 3 over Compound 5 [2] [%]	half-life [2] [min]	fluorescence area of the tumor over the course of the study (FIG. 13) [3]	Taxol/Cmpd AUC Ratio ([4]; 38.4 mg/kg IP single dose)	AUC ratio Taxol/compound, times higher than AUC ratio of Taxol/Compound 5 ([4]; 38.4 mg/kg IP) [times]	T1/2 of released Taxol, longer than that of Taxol released from Compound 5 ([4]; 38.4 mg/kg IP) [%]	AUMC0-t (h*h*nmol/L) [4, 5]	AUMC0-t (h*h*nmol/L) [4, 6] [h*h*nmol/L]	Cmax of parent compound, fold higher than that of Compound 3 ([4]; 38.4 mg/kg IP)
CC(=O)N[C@@H](CSSCCCC(=O)OC(C(=O)O[C@H]1C[C@@]2(O)[C@@H](OC(=O)c3ccccc3)[C@@H]3[C@]4(OC(C)=O)CO[C@@H]4C[C@H](O)[C@@]3(C)C(=O)[C@H](OC(C)=O)C(=C1C)C2(C)C)[C@@H](NC(=O)c1ccccc1)c1ccccc1)C(=O)N[C@H](CCCNC(=N)N)C(=O)N[C@H](CCCNC(=N)N)C(=O)N[C@H](CCCNC(=N)N)C(=O)N[C@H](CCCNC(=N)N)C(=O)N[C@H](CCCNC(=N)N)C(=O)N[C@H](CCCNC(=N)N)C(=O)N[C@H](CCCNC(=N)N)C(=O)N[C@H](CCCNC(=N)N)C(N)=O (stereo partly drawn) [Compound 3, Ac-L-Cysteine (paclitaxel-4-mercaptobutanoate)-D-Arginine8-NH2]	greater than the anti-proliferation effect of Taxol and Compound 5	34.18	63.6	fluorescence decreased over the course of the study	81.84	20	33.3	72,372.302 h*h*nmol/L	26.304	
CC(=O)N[C@H](CSSCCCC(=O)O[C@@H](C(=O)O[C@H]1C[C@@]2(O)[C@@H](OC(=O)c3ccccc3)[C@@H]3[C@]4(OC(C)=O)CO[C@@H]4C[C@H](O)[C@@]3(C)C(=O)[C@H](OC(C)=O)C(=C1C)C2(C)C)[C@@H](NC(=O)c1ccccc1)c1ccccc1)C(=O)N[C@H](CCCNC(=N)N)C(=O)N[C@H](CCCNC(=N)N)C(=O)N[C@H](CCCNC(=N)N)C(=O)N[C@H](CCCNC(=N)N)C(=O)N[C@H](CCCNC(=N)N)C(=O)N[C@H](CCCNC(=N)N)C(=O)N[C@H](CCCNC(=N)N)C(=O)N[C@H](CCCNC(=N)N)C(N)=O [Compound 5, Ac-D-Cysteine (paclitaxel-4-mercaptobutanoate)-D-Arginine8-NH2]			47.4		3.942			3274.99 h*h*nmol/L	830.67	over 100 fold
